Data taken from publication PMC9654219, “Molecular Mechanism of Sirtuin 1 Modulation by the AROS Protein” (International Journal of Molecular Sciences, 2022).

T1: AROS 1–89 (N-terminus of AROS) (human, UniProt Q86WX3 1-89)
T1 construct: human AROS (RPS19BP1), residues 1-89; Preparation is told for 'human AROS constructs' in general
T1 sequence (looked up): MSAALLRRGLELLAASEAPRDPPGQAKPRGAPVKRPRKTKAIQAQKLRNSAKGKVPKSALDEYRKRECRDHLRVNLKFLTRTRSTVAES

T2: Sirt3 residues 118–399 (human, UniProt Q9NTG7 118-399)
T2 construct: human Sirt3, residues 118-399 (pVFT3S); source: E. coli BL21 (DE3) CodonPlus, purified (Ni beads, TEV cleavage, ion exchange, S200 gel filtration)
T2 sequence (looked up): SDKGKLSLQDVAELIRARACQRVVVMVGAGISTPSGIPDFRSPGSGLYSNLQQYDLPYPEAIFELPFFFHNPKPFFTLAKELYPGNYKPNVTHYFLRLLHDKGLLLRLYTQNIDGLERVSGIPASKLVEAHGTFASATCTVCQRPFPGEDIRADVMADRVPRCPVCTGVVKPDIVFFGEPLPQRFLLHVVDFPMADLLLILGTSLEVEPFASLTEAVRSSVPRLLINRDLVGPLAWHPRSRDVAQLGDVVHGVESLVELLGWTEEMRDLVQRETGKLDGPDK

T3: full-length Sirt1 (human, UniProt Q96EB6 1-747)
T3 sequence (looked up): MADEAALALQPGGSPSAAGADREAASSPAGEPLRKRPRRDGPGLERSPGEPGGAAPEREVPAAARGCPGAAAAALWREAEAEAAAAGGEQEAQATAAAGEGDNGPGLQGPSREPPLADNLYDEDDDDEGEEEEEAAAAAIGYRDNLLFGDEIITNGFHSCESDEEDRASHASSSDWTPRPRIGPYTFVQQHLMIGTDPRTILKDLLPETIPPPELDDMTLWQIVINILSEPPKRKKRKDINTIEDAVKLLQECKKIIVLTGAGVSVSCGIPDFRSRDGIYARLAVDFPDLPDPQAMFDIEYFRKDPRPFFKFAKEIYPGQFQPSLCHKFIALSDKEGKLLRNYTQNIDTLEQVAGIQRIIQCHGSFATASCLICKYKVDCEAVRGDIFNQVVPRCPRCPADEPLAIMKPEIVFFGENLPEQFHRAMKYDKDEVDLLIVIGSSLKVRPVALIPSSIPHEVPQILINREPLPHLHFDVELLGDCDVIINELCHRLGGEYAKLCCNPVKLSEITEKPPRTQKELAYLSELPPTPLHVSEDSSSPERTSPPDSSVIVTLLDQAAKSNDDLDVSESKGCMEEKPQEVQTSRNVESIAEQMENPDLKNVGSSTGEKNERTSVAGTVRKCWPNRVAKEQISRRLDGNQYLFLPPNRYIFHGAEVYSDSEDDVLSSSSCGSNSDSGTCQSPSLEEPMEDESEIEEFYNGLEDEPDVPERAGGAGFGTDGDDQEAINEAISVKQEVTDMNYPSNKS

T4: Sirt5 residues 34–302 (human, UniProt Q9NXA8 34-302)
T4 construct: human Sirt5, residues 34-302 (pET151/D-TOPO); source: E. coli BL21 (DE3) CodonPlus, purified (Ni beads, TEV cleavage, S200 gel filtration)
T4 sequence (looked up): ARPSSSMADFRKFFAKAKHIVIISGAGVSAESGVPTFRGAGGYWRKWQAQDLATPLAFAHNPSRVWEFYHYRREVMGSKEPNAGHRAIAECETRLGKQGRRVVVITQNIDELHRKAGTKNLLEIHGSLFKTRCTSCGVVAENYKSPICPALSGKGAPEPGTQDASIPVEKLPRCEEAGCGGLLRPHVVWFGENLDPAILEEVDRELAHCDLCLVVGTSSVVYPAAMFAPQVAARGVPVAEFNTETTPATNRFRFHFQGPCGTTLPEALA

B1: AROS peptide 80-91 (peptide)
peptide: TRTRSTVAESVS
notes: human AROS (RPS19BP1), residues 80-91; also called AROS80-91; AROS 80–91; source: synthetic peptide, bought: GL Biochem
B2: mini-Sirt1ex687 (domain or fragment)
chain: GPYTFVQQHLMIGTDPRTILKDLLPETIPPPELDDMTLWQIVINILSEPPKRKKRKDINTIEDAVKLLQECKKIIVLTGAGVSVSCGIPDFRSRDGIYARLAVDFPDLPDPQAMFDIEYFRKDPRPFFKFAKEIYPGQFQPSLCHKFIALSDKEGKLLRNYTQNIDTLEQVAGIQRIIQCHGSFATASCLICKYKVDCEAVRGDIFNQVVPRCPRCPADEPLAIMKPEIVFFGENLPEQFHRAMKYDKDEVDLLIVIGSSLKVRPVALIPSSIPHEVPQILINREPLPHLHFDVELLGDCDVIINELCHRLGGEYAKLCCNPVGGGSGGGSQYLFLPPNRYIFHGAEVYSDSEDDVLSSSSCGSNSDSGTCQSPSLEE
B3: AROS peptide 62-71 (peptide)
peptide: EYRKRECRDH
notes: human AROS (RPS19BP1), residues 62-71; also called AROS62-71; AROS 62–71; source: synthetic peptide, bought: GL Biochem
B4: AROS peptide 96-109 (peptide)
peptide: RQNRGRKACDRPVA
notes: human AROS (RPS19BP1), residues 96-109; also called AROS96-109; AROS 96–109; source: synthetic peptide, bought: GL Biochem
B5: Sirt1 144–230 (N-terminus and SBD) (domain or fragment, human, UniProt Q96EB6 144-230, looked up)
chain: DNLLFGDEIITNGFHSCESDEEDRASHASSSDWTPRPRIGPYTFVQQHLMIGTDPRTILKDLLPETIPPPELDDMTLWQIVINILSE
notes: also called Sirt1-SBD
B6: active regulator of Sirt1 (AROS), full length, residues 1-136 (natural protein, human, UniProt Q86WX3 1-136, looked up)
chain: MSAALLRRGLELLAASEAPRDPPGQAKPRGAPVKRPRKTKAIQAQKLRNSAKGKVPKSALDEYRKRECRDHLRVNLKFLTRTRSTVAESVSQQILRQNRGRKACDRPVAKTKKKKAEGTVFTEEDFQKFQQEYFGS
notes: human AROS (RPS19BP1), residues 1-136, with N-terminal hexahistidine tag and TEV protease cleavage site (modified pET19b); No tag removal is described; 15N-labelled for the NMR titrations; In MST either AROS or Sirt1 carried Cy5 on lysines; also called AROS 1–136; full-length AROS; not shown: His6, N-terminal, kept

Columns and labels:
[1] = target: B2; experiment: MST; either AROS or Sirt1 labelled with Cy5-NHS ester (40–120 nM labelled protein); 50 mM Na2HPO4/NaH2PO4 pH 7.0, 250 mM NaCl, 2 mg/mL BSA, 20 °C; Monolith NT.115; conditions: both partners purified
[2] = target: B5; experiment: as above; conditions: both partners purified
[3] = target: B6; experiment: as above; conditions: both partners purified
[4] = target: T1, AROS 1–89 (N-terminus of AROS); experiment: as above; conditions: both partners purified
[5] = target: T2, Sirt3 residues 118–399; experiment: crystal structure; 10 mg/mL Sirt3 pre-incubated with 1 mM AROS peptide 62–71 and 1 mM AROS peptide 96–109; 12% PEG 8.000, 0.1 M HEPES pH 7.5, 0.2 M NaCl, 20 °C; 3.27 Å; conditions: both partners purified
[6] = target: T3, full-length Sirt1; experiment: cell-based or functional assay
[7] = target: T4, Sirt5 residues 34–302; experiment: cross-linking; 2 mM DSSO, 50 µM of each protein, 50 mM NaHPO4 pH 7, 250 mM NaCl, RT; SDS-PAGE; bands analysed by LC-ESI-MS/MS; conditions: both partners purified

B1 gave a Kd [1] of 721 ± 310 µM and a Kd [2] of 579 ± 102 µM.

B2 gave a Kd [3] of 1.3 ± 0.2 µM and a Kd [4] of 65 ± 9 µM.

With B3 the Kd [1] was 86 ± 16 µM, the Kd [2] was 166 ± 24 µM and the binding result [5] was “binds”.

B4 showed a Kd [1] of 151 ± 31 µM.

In the case of B5, the Kd [4] is reported as 209 ± 67 µM.

In the case of B6, the “increase of KM for the acetylated FdL substrate peptide with 40 µM AROS (FdL activity assay, substrate titration)” value [6] is reported as about 3 fold and the binding result [7] is reported as “binds”.
